According to patent publication US20240325562A1, “INTERNALIZING BINDING MOLECULES” (LinXis B.V., priority 2020, published 2024):
Changes are numbered by the printed parent chain.

B1: 13A8: VHH single domain antibody targeting IGF2R, SEQ ID NO: 257 (protein)
VHH: EVQLVESGGGLVPAGGSLRLSCAASGRTFSNYAMGWFRQAPGKERKFVATISWSGGVTYYADSVKGRFTISRDNAKNTVYLLMNSLKPEDTAVYYCAAKRDSSSYDHRRYDYWGQGTQVTVSS
B2: 13C11: VHH single domain antibody targeting IGF2R, SEQ ID NO: 297 (protein)
VHH: EVQLVESGGGLVQAGGSLRLSCAASGLTFSSYTMAWYRQAPGKEREVVAAISSGDSIYHEGSVQGRFIISRDNAKNTVYLQMNSLKAEDTAVYYCRANGPGTYWGQGTQVTVSS
B3: 13G10: VHH single domain antibody targeting IGF2R, SEQ ID NO: 305 (protein)
VHH: B2 VHH with G61D
B4: 13E8: VHH single domain antibody targeting IGF2R, SEQ ID NO: 249 (protein)
VHH: EVQLVESGGGLVQAGGSLRLSCAASRSISPMGWYRQAPGKQRELVAIMPSSGPPIYADSVQGRFTISRDNAKNTVYLQMNSLKPEDTAVYYCNVGGGYWGQGTQVTVSS
B5: 13A12: VHH single domain antibody targeting IGF2R, SEQ ID NO: 289 (protein)
VHH: EVQLVESGGGLVQAGGSLRLSCAASGIIFGANTVGWYRQVPGKERDVVASITSGDSTYYGDSVRGRFTISRDNAKNTMYLQMNSLKPEDTAIYYCRARTTDGSYWGQGTQVTVS
B6: SP02P: VHH single domain antibody targeting PDGFRB, SEQ ID NO: 9 (protein)
VHH: EVQLVESGGGLVQAGGSLRLSCAASESISSIEQMGWFRQAPGKQRALVAINTYGGRTVYTNSVEGRFTMSRDSAKNMVYLQMTSLEPEDTAVYYCYAQTTAWRGGVWGQGTQVTVSS
B7: SP01P: VHH single domain antibody targeting PDGFRB, SEQ ID NO: 1 (protein)
VHH: EVQLVESGGGLAQAGGSLRLSCVASGNIDSANGMAWYRQAPGKQRELVAHITSGTSYYVASVEGRFTISRANAKDTWYLQMNSLKPEDTGVYYCFPIGLSAHWSQGTQVTVSS
B8: SP07P: VHH single domain antibody targeting PDGFRB, SEQ ID NO: 33 (protein)
VHH: EVQLVESGGGSVQTGGSLRLSCAASGRSFSTYAMAWFRQAPGKEREFVAAINRRATDTVYADSAKGRFIISRDNDKNTVYLQMDSLKTEDTAVYYCAAAKNAYDWRWDRLRDRDYWGQRGQGTQVTVSS
B9: SP10P: VHH single domain antibody targeting PDGFRB, SEQ ID NO: 49 (protein)
VHH: EVQLVESGGGLVQAGGSLRLSCAASGRTFNGYAMGWFRQAPGKERDFVAAITWSYGYTHYAESVKGRFSISRDSANNMVYLEMNSLKPEDTAVYYCAADPKASRFRTLRRYDYWGQGTQVTVSS
B10: SP12P: VHH single domain antibody targeting PDGFRB, SEQ ID NO: 65 (protein)
VHH: EVQLVESGGGLVQAGGSLRLSCVISGRTSPTYPMGWFRQSPGNEREFVASINWSGGWRNYADSVKGRFTISRDDAKNTVYLQMNSLKPEDTAVYYCARGQYSSGTPVYAHEYAYWGQGTQVTVSS
B11: SP20P: VHH single domain antibody targeting PDGFRB, SEQ ID NO: 113 (protein)
VHH: B10 VHH with G66D
B12: SP14P: VHH single domain antibody targeting PDGFRB, SEQ ID NO: 81 (protein)
VHH: EVQLVESGGGLVQAGDSLRLSCVVSGLTFSRYGMGWFRQATGKEREFVGGISVGSSGTMYPNSVKGRFTISRDNAKSTVYLQMNSLKPEDTAVYFCAAIDQGSFVQQRDYRYWGQGTQVTVSS
B13: SP13P: VHH single domain antibody targeting PDGFRB, SEQ ID NO: 73 (protein)
VHH: EVQLVESGGGLVQPGGSLRLSCAASESIFSINYMAWYRQAPGKQRELVAFSIDGSSTNYVDSVRGRFTASRDNAENTLYLQMNSLKPEDTAVYYCYAQGNTWAAGVWGQGTQVTVSS
B14: SP05P: VHH single domain antibody targeting PDGFRB, SEQ ID NO: 25 (protein)
VHH: EVQLVESGGGLVQAGGSLRLSCAASGRTSFSGYAMAWFRQAPGKERDFVASITWSYGYTYYTDSAQGRFTISRDSAKNTVYLEMNSLKPEDTAVYYCAADPKASRFRILREYAYWGQGTQVTVSS
B15: SP08P: VHH single domain antibody targeting PDGFRB, SEQ ID NO: 41 (protein)
VHH: EVQLVESGGGLVQAGGSLRLSCAASGRTFNGYAMAWFRQAPGKERDFVASITWSYGYTYYADSAQGRFTISRDSAKNTVYLEMNSLKPEDTAVYYCAADPKASRFRILRQYAHWGQGTQVTVSS

The molecules below were run against T1, hIGF2R-ECD (Homo sapiens, UniProt P11717) (assay: Competition assay with 13F11-A647 as reporter VHH on immobilized hIGF2R-ECD). Settings: 10 nM 13F11-A647, 250 nM unconjugated competitor VHH.
T1 construct: immobilized recombinant human extracellular domain of IGF2R (hIGF2R-ECD) was used
Format: binding
Experimental: With the term “compete” is meant that in a competition assay, such as for instance described in Example 6 of the present invention, the addition of a binding molecule induces a significant decrease in binding of a given VHH, i.e., the VHH to which the competing is determined. “Significant” in this respect is preferably a decrease of >5%, preferably >10% when 250 nM of a binding molecule is added to 10 nM of a fluorescence labelled VHH in an ELISA. […] The same test conditions and threshold apply to a binding molecule directed to PDGFRB when determining whether a binding molecule competes with a given VHH.
(§1) Biparatopic VHH constructs contain two VHH which bind to a different epitope, i.e. which are non-competitive binders. To identify (a) pair(s) of non-competitive binders, competition assays were performed. In the example shown, an Alexa fluor-conjugate of the high affine VHH 13F11 was used as the reporter VHH (13F11-A647, see example 10.2). In the assay, a non-saturating amount (10 nM) of 13F11-A647 was incubated with immobilized hIGF2R-ECD in the presence or absence of 250 nM unconjugated competitor VHH to allow competition to take place.

Row | competition with reporter VHH 13F11-A647 | Molecule
1 | competed with 13F11 | B1
2 | competed with 13F11 | B2
3 | competed with 13F11 | B3
4 | did not compete with 13F11 | B4
5 | competed with 13F11 | B5

Same assay, conditions: 10 nM labelled 13F11, 250 nM unlabelled competitor VHH

Row | Molecule | less fluorescence intensity (decrease in binding of labelled 13F11)
6 | B1 | substantially more decrease in fluorescence intensity
7 | B2 | substantially more decrease in fluorescence intensity
8 | B3 | substantially more decrease in fluorescence intensity
9 | B4 | less than 5%
10 | B5 | substantially more decrease in fluorescence intensity

What follows are molecules tested against hPDGFRB (Homo sapiens, UniProt P09619) (assay: Competition assays of PDGFRB VHHs on hPDGFRB). Settings: IRDye800-conjugated SP26P as reporter.
Format: binding
Experimental: as §1
Similar as to in example 6.1, competition assays were performed to identify unique hPDGFRB- or rPDGFRB binders. Across 10 PDGFRB-binding VHHs obtained from libraries 1 and 2 (e.g. the VHH raised against hPDGFRB), four main groups were identified being first SP01P, SP02P, SP07P and SP13P, second SP05P, SP08P and SP10P, third SP12P and SP20P and finally SP14P. All VHH within each of the first three groups mutually competed.
To evaluate whether the obtained VHHs would qualify as building blocks for multivalent VHH constructs that bind hPDGFRB as well as rPDGFRB (e.g. ‘species cross-reactive’ VHH constructs), competition assays were performed using the most promising VHHs SP02 (raised against hPDGFRB) and SP26P (raised against rPDGFRB).

hPDGFRB, sequence (P09619 33-532 limits assumed): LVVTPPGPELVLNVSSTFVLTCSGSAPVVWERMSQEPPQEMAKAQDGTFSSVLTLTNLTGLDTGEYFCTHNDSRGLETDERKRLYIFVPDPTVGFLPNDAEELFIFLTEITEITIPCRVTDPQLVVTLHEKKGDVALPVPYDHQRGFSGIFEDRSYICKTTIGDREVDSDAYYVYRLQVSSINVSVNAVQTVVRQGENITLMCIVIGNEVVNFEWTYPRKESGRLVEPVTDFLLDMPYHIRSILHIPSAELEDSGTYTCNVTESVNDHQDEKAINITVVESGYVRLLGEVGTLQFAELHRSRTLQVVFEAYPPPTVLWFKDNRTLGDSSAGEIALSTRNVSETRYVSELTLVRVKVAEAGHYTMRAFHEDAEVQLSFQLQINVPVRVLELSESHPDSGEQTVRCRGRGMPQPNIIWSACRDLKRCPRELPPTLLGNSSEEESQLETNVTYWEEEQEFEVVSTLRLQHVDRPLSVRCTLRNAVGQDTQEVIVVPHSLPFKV

Row | competition between SP02 and SP26P | Molecule
11 | did not compete | B6

Same assay, conditions: VHHs from libraries 1 and 2; four main groups

Row | epitope group (mutual competition) | Molecule
12 | first | B7
13 | first | B8
14 | second | B9
15 | third | B10
16 | third | B11
17 | first | B6
18 | lone VHH | B12
19 | first | B13
20 | second | B14
21 | second | B15
